Patent publication US20100167390, “Novel Oligonucleotide and NF-kB Decoy Comprising the Same” (published 2010)

Target: NF-kB p65 (RelA) (UniProt Q04206 Q04206:1-551)
Test: competition; primary screen 2.10
Details: protein: extract; tags: TPA and CI-stimulated Jurkat nuclear extract, Active Motif TransAM kit
Protocol: The measurement was performed in accordance with the instructions attached to the kit. The kit was made for quantifying the NF-κB bound to the solid phase by ELISA after adding an NF-κB solution to the wells in which the NF-κB (p65 protein) consensus binding sequence was immobilized and after washing the resultant. By this measurement method, the higher the binding capacity of the oligonucleotide to the NF-κB, the smaller amount of the NF-κB quantified by the ELISA.
More concretely, the above-described measurement was carried out as follows concretely: Each SODN solution was serially diluted with Complete Binding Buffer contained in the kit to prepare test samples (common ratio: 3-fold, 4 times, n=3). […] After allowing coloration for 10 minutes, the Stop Solution was added to stop the reaction, and the absorbances at 450 nm and 630 nm were measured.
The absorbance at 630 nm was subtracted from the absorbance at 450 nm and the mean value of the blanks was further subtracted from the resultant, and the percentage of the mean value of each concentration based on the mean value of the controls was calculated. The concentration at which the calculated value was 50% (i.e., at which the binding was inhibited by 50%) was calculated from the regression lines between two points interposing 50% (an analysis software Graph Pad PRISM 4, GraphPad SOFTWARE was used). […]

Chain of NF-kB p65 (RelA) (Q04206 whole entry, one chain of several): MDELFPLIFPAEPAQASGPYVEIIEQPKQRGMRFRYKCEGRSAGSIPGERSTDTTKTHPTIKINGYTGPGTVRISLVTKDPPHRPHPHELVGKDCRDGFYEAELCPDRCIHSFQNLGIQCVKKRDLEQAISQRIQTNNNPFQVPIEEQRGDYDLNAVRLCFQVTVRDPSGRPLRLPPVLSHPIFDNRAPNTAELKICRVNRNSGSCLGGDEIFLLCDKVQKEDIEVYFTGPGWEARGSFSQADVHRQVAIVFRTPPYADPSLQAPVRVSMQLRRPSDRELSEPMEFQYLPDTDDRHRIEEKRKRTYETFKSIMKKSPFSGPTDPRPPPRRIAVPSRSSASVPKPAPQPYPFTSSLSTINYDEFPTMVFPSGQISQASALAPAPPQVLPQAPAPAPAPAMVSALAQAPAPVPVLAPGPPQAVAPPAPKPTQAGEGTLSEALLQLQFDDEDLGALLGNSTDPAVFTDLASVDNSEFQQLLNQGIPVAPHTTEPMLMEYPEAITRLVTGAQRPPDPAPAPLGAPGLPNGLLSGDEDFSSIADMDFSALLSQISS

B1: SODN36 (dsDNA)
DNA 1: CTCGGGATTTCCCAGCTCG
DNA 2: CGAGCTGGGAAATCCCGAG
modifications: PS all bonds, both strands
- IC50: 2.61 nM
